Measured values as given in patent publication US20240044903A1 (KOZA NOVEL MATERIALS KOREA, published 2024).
Blank lines part the entries; values can stand above or below the binder they belong to.

Tests used:
recombinant human TK1 [1] = target: T1, recombinant human TK1 (human, UniProt P04183 1-234, limits assumed); assay: ECL dot blot with recombinant TK1
T1 construct: also called rHTK1; human recombinant TK1
T1 sequence: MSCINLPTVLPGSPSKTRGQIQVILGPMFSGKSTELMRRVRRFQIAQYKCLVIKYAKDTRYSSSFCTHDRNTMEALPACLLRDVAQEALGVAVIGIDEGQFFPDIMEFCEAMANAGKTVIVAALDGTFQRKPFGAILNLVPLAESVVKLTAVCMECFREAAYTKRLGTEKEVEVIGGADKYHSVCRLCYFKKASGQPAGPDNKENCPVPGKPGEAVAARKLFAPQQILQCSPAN
Experimental: (§1) FIGS. 3A-3D show dot blot and Western blot analysis. Recombinant TK1 protein from canine (rCTK1), feline (rFTK1), equine (rETK1) and human (rHTK1) at concentration ranging from 20-0.6 ng was blotted. The membranes were developed with (FIG. 3A) monoclonal antibody produced against active site mAb1 ([…], diluted in TBS containing 3% of non-fat dry milk) and (FIG. 3B) monoclonal antibody produced against C terminal region mAb2 ([…], diluted in TBS containing 3% of non-fat dry milk). Recombinant dog TK1, human TK1 at concentration (10, 5 and 2.5 ng) and human TK1 positive cell extract containing 25 μg of protein (CEM TK1+) and TK1 negative cell extract containing 25 µg of protein (CEM TK1−) were electrophoresed using SDS-PAGE, followed by Western blots with […] of mAb1 diluted in TBS containing 3% of non-fat dry milk (FIG. 3C). Western blot results with […] of mAb2 diluted in TBS containing 3% of non-fat dry milk mAb 2 (FIG. 3D).
(§2) ECL dot blot assay was carried out as described previously (He et al., 2000). In brief, 3 μl of recombinant enzyme at varying concentrations ranged from 20 to 0.6 ng was applied on nitrocellulose membrane (Thermo scientific, Germany). The membrane was blocked in non-fat dry milk 10% (Bio-Rad) for 1 h and then incubated with the hybridoma supernatants or antisera and incubated for overnight at 4° C. Then after the membrane was washed and incubated with a biotinylated second antibody conjugated with horseradish peroxidase directed against mouse (GE healthcare, UK) for 1 h at room temperature. Followed by adding ECL reagent. Finally, the signal was detected by ChemiDoc Imaging System BIO-RAD.

recombinant feline TK1 [2] = target: T2, recombinant feline TK1 (cat, UniProt P04183 2-234 (human entry)); assay: ECL dot blot with recombinant TK1
T2 construct: also called rFTK1; cat TK1
T2 chain: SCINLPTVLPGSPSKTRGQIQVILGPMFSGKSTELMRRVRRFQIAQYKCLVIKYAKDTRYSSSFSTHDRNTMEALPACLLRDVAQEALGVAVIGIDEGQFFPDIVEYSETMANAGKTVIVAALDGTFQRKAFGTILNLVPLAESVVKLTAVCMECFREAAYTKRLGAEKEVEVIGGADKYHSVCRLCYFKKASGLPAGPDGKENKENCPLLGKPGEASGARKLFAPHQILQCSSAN
Experimental: as §1, §2

recombinant equine TK1 [3] = target: T3, recombinant equine TK1 (horse, UniProt P04183 2-234 (human entry)); assay: ECL dot blot with recombinant TK1
T3 construct: also called rETK1; horse TK1
T3 chain: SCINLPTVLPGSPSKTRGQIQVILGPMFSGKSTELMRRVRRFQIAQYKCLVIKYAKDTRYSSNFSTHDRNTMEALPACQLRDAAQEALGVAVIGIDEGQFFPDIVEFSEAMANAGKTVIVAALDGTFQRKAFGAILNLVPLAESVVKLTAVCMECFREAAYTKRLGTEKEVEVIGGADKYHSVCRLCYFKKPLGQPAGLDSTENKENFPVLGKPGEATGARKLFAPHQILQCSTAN
Experimental: as §1, §2

[4] = target: T4, human cytosolic TK1 in CEM TK1+ cell extract (human, UniProt P04183 2-234); assay: Western blot after SDS-PAGE, mAb2 at 2 pg/ml as printed
T4 construct: Cell extract with 25 ug (also printed as 25 pg) of protein; also called wild-type of CEM cell extract; cytosolic TK1 from human (CEM+)
T4 sequence: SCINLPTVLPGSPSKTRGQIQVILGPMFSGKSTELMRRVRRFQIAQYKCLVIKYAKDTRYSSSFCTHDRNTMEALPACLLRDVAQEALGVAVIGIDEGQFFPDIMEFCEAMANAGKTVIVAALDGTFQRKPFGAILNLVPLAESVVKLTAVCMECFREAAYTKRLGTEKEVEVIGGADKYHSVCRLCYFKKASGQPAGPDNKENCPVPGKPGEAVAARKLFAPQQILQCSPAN
Experimental: as §1
(§3) Western blot assay: recombinant canine TK1, human recombinant TK1 ([…]) and cytosolic TK1 from human (CEM+/−) containing 25 µg of proteins were diluted in a denaturing sample buffer, boiled, and loaded onto a 12% polyacrylamide gel. The gel was electrophoresed in SDS running buffer. […]

recombinant canine TK1 = target: T5, recombinant canine TK1 (dog); assay: Quartz Crystal Microbalance, antibody immobilized, recombinant canine TK1 injected
T5 construct: also called rCTK1; recombinant dog TK1
T5 chain: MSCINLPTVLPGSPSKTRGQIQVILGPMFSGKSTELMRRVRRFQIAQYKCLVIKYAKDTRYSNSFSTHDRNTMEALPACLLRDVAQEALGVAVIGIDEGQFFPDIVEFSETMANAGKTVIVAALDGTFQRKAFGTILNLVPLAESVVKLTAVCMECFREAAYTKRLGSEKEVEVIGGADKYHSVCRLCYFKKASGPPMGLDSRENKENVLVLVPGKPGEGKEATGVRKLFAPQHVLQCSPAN
Experimental: The kinetics of the interaction between the two monoclonal antibodies, mAb1 and mAb2 (150 kDa), and canine recombinant TK1 was measured by a Quartz Crystal Microbalance (QCM) technology. To characterize binding interactions, the monoclonal antibody was immobilized on the sensor surface and the sample containing recombinant canine TK1 was injected over the sensor surface. […] The signal output is given in frequency (Hz) and is directly related to changes in mass on the sensor surface.

recombinant human TK1 [5] = target: T1, recombinant human TK1; assay: ECL dot blot with recombinant TK1, 20 to 0.6 ng
Experimental: as §1, §2

recombinant feline TK1 [6] = target: T2, recombinant feline TK1; assay: ECL dot blot with recombinant TK1, 20 to 0.6 ng
Experimental: as §1, §2

recombinant equine TK1 [7] = target: T3, recombinant equine TK1; assay: ECL dot blot with recombinant TK1, 20 to 0.6 ng
Experimental: as §1, §2

[8] = target: T4, human cytosolic TK1 in CEM TK1+ cell …; assay: Western blot after SDS-PAGE of denatured cell extract
Experimental: as §1, §3

binding result (recombinant human TK1 [1]): no binding (tested: 20 to 0.6 ng)
binding result (recombinant feline TK1 [2]): no binding (tested: 20 to 0.6 ng)
binding result (recombinant equine TK1 [3]): no binding (tested: 20 to 0.6 ng)
binding result [4]: no binding
Kd (recombinant canine TK1): 0.2 to 0.4 nM
koff (recombinant canine TK1): 0.00011 to 0.00019 s⁻¹
kon (recombinant canine TK1): 500000 to 540000 M⁻¹ s⁻¹
B1: CTK1-2 (mAb2) (antibody, mouse IgG2b, kappa, V domains shown)
VH: EVQLQQSGAELVKPGASVKLSCTASGFNIKDTYMHWVKQRPEQGLEWIGRIDPANGNTKYDPKFQGKATITPDTSSTTAYLQLSSLTSEDTAVYYCARNRAYYGNYYAMDYWGQGTSVTVSS
VL: DIVMTQSPSSLTVTAGEKVTMSCKSSQSLLNSRNQKNYLTWYQQKPGQPPKLLIYWASTRESGVPDRFTGSGFGTDFTLAISSVQAEDLAVYYCQNDYSYPFTFGSGTKLEIKR
notes: Mouse monoclonal IgG2b-kappa from hybridoma sub-clone 3H11, raised against the C-terminal peptide (amino acids 211-225) of dog TK1; also called 3H11

binding result (recombinant human TK1 [5]): binds
binding result (recombinant feline TK1 [6]): binds
binding result (recombinant equine TK1 [7]): binds
binding result [8]: binds
Kd (recombinant canine TK1): 0.3 to 0.75 nM
koff (recombinant canine TK1): 6.1e-05 to 0.00023 s⁻¹
kon (recombinant canine TK1): 240000 to 300000 M⁻¹ s⁻¹
B2: CTK1-1 (mAb1) (antibody, mouse IgG1, kappa, V domains shown)
VH: EVKLVESGGGLVQPGDSLRLSCATSGFTFNDHYMNWVRQPPGKALEWVAFIGNKAYGYKIEYNSSVKGRFTISRDDSQSFLYLQLNTLRSEDSATYYCARDGAFIYWGQGTVVTVSA
VL: DVVMTQTPLSLPVSLGDQASISCRSSQSLVHSNGNTYLHWYLQKPGQSPKLLIYKVSNRFSGVPDRFSGSGSGSDFTLKISRVEAEDLGVYFCSQSTHIPYTFGGGTELEIRR
notes: Mouse monoclonal IgG1-kappa from hybridoma sub-clone 9C8, raised against the active site peptide (amino acids 161-183) of human TK1; also called 9C8
